Reference: US20230203158A1 (FLAGSHIP PIONEERING INNOVATIONS VII, published 2023)

T1: DSG1 stably expressed on HEK-BLUE IL-10 cells (called human DSG1; DSG1 gene NP_034209.2) (human, UniProt Q02413 50-1049)
T1 sequence (looked up): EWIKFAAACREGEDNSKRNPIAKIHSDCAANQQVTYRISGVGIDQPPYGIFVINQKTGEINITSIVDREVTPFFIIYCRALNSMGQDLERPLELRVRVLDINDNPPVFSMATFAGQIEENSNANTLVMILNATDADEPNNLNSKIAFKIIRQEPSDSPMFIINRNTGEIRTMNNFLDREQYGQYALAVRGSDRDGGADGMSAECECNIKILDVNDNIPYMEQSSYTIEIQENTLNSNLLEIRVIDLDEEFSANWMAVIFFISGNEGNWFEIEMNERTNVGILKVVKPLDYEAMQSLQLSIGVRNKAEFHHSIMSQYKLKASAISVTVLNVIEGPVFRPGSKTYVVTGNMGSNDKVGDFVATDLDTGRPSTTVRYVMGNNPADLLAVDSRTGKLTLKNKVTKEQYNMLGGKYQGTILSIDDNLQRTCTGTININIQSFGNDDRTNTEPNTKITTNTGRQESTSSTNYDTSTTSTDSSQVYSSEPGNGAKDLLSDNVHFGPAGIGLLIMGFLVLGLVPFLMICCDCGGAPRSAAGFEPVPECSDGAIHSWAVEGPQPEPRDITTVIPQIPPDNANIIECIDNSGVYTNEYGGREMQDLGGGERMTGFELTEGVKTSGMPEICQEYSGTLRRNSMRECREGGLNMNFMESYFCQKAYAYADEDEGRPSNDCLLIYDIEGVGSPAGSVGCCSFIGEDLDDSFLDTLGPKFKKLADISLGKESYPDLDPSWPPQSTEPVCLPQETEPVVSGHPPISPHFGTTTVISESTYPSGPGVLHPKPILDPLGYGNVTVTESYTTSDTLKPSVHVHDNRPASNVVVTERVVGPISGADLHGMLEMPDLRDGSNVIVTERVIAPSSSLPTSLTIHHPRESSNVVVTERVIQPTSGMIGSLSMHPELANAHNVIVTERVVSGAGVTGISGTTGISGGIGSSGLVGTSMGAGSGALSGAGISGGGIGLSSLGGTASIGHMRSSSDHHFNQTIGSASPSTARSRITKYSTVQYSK


How the values were obtained:
[1] = target: IL-10 receptor of HEK-BLUE IL-10 cells (the cells express all the components of the IL-10 signaling pathway); experiment: cell-based or functional assay
[2] = target: T1, DSG1 stably expressed on HEK-BLUE IL-10 …; experiment: cell-based or functional assay
[3] = target: T2, recombinant His-tagged murine RAGE protein (ab276858 from Abcam) (murine, UniProt Q62151 23-342, limits assumed); experiment: BLI, ANDbody on anti-human IgG Fc biosensors, murine RAGE at 150 nM then murine Notch2 NRR at 150 nM
T2 construct: also called murine RAGE antigen; not shown: His tag
T2 sequence (Q62151 23-342 limits assumed): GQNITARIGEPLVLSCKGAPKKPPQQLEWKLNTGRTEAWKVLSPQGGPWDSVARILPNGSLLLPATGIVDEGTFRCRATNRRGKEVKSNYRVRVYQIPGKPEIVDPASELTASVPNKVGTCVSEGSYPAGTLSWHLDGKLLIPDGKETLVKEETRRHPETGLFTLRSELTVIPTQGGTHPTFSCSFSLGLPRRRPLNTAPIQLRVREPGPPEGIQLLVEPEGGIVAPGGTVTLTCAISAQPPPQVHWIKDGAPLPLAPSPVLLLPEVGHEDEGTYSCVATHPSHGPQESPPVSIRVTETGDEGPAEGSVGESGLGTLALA
Experimental: To test simultaneous dual antigen binding of the Notch2/RAGE ANDbodies by BLI, PRO051, PRO052 and PRO053, along with monovalent parental antibody controls were immobilized on anti-human IgG Fc biosensors and dipped into the recombinant His-tagged murine RAGE protein at 150 nM, followed by a second association step into wells containing recombinant murine Notch2 NRR at 150 nM to measure dual antigen binding. The dissociation rate was then measured by dipping the biosensors into buffer.

| Binder | EC50 (pM), HEK-BLUE IL-10 signaling assay (SEAP) [1] [pM] | binding result [3] | further results |
| --- | --- | --- | --- |
| PRO058 (IL-10/DSG1 ANDbody in which monomeric IL-10 replaces one Fab of the anti-DSG1 mAb; functionally equivalent to PRO026, with a substitution in the Fc … (other) heavy: EVQLVESGGGLVQPGRSLRLSCAASGFTFDDYAMHWVRQAPGKGLEWVSGISWNSGSIDYADSVKGRFTISRDNAKNSLYLQMNSLRVEDTALYYCAKDGSRVFGVGGGFDFWGQGTMVTVSSASTKGPSVFPLAPSSKSTSGGTAALGCLVKDYFPEPVTVSWNSGALTSGVHTFPAVLQSSGLYSLSSVVTVPSSSLGTQTYICNVNHKPSNTKVDKKVEPKSCDKTHTCPPCPAPEAAGGPSVFLFPPKPKDTLMISRTPEVTCVVVDVSHEDPEVKFNWYVDGVEVHNAKTKPREEQYNSTYRVVSVLTVLHQDWLNGKEYKCKVSNKALGAPIEKTISKAKGQPREPQVYTLPPSRDELTKNQVKLTCLVKGFYPSDIAVEWESNGQPENNYKTTPPVLDSDGSFFLYSSLTVDKSRWQQGNVFSCSVMHEALHNHYTQKSLSLSPG light: not shown SPGQGTQSENSCTHFPGNLPNMLRDLRDAFSRVKTFFQMKDQLDNLLLKESLLEDFKGYLGCQALSEMIQFYLEEVMPQAENQDPDIKAHVNSLGENLKTLRLRLRRCHRFLPCENGGGSGGKSKAVEQVKNAFNKLQEKGIYKAMSEFDIFINYIEAYMTMKIRNGGGGSGGGGSDKTHTCPPCPAPEAAGGPSVFLFPPKPKDTLMISRTPEVTCVVVDVSHEDPEVKFNWYVDGVEVHNAKTKPREEQYNSTYRVVSVLTVLHQDWLNGKEYKCKVSNKALGAPIEKTISKAKGQPREPQVYTLPPSRDELTKNQVSLTCLVSGFYPSDIAVEWESNGQPENNYKTTPPVLDSDGSFKLYSKLTVDKSRWQQGNVFSCSVMHEALHNRFTQKSLSLSPG |  |  | increase in potency of IL-10 signaling (SEAP) on HEK-BLUE IL-10/DSG1 cells against parental HEK-BLUE IL-10 cells [2]: ~15 fold |
| PRO052 (Notch2/RAGE ANDbody made by controlled Fab arm exchange of PRO035 K409R and PRO002 F405L) (bispecific antibody, copies: 1 + 1 + 1 + 1) heavy 1: not shown light 1: DIQMTQSPSSLSASVGDRVTITCRASQSNRRFLAWYQQKPGKAPKLLIYGASSRASGVPSRFSGSGSGTDFTLTISSLQPEDFATYYCQQYYISPLTFGQGTKVEIKRTVAAPSVFIFPPSDEQLKSGTASVVCLLNNFYPREAKVQWKVDNALQSGNSQESVTEQDSKDSTYSLSSTLTLSKADYEKHKVYACEVTHQGLSSPVTKSFNRGEC heavy 2: not shown light 2: DIQMTQSPSSLSASVGDRVTITCRASQDVGIYVNWFQQKPGKAPRRLIYRATNLADGVPSRFSGSRSGTDFTLTISSLQPEDFATYYCLEFDEHPLTFGGGTKVEIKRTVAAPSVFIFPPSDEQLKSGTASVVCLLNNFYPREAKVQWKVDNALQSGNSQESVTEQDSKDSTYSLSSTLTLSKADYEKHKVYACEVTHQGLSSPVTKSFNRGEC |  | binds |  |
| PRO051 (Notch2/RAGE ANDbody made by controlled Fab arm exchange of PRO034 K409R and PRO002 F405L) (bispecific antibody, copies: 1 + 1 + 1 + 1) heavy 1: not shown light 1: not shown heavy 2: not shown light 2: DIQMTQSPSSLSASVGDRVTITCRASQDVGIYVNWFQQKPGKAPRRLIYRATNLADGVPSRFSGSRSGTDFTLTISSLQPEDFATYYCLEFDEHPLTFGGGTKVEIKRTVAAPSVFIFPPSDEQLKSGTASVVCLLNNFYPREAKVQWKVDNALQSGNSQESVTEQDSKDSTYSLSSTLTLSKADYEKHKVYACEVTHQGLSSPVTKSFNRGEC |  | binds |  |

Second part, led by results:

| EC50 (pM), HEK-BLUE IL-10 signaling assay (SEAP) [1] [pM] | binding result [3] | Binder | further results |
| --- | --- | --- | --- |
| 750 |  | PRO026 (IL-10/DSG1 ANDbody: monomeric IL-10 replacing one Fab of the anti-DSG1 mAb) (other) heavy: EVQLVESGGGLVQPGRSLRLSCAASGFTFDDYAMHWVRQAPGKGLEWVSGISWNSGSIDYADSVKGRFTISRDNAKNSLYLQMNSLRVEDTALYYCAKDGSRVFGVGGGFDFWGQGTMVTVSSASTKGPSVFPLAPSSKSTSGGTAALGCLVKDYFPEPVTVSWNSGALTSGVHTFPAVLQSSGLYSLSSVVTVPSSSLGTQTYICNVNHKPSNTKVDKKVEPKSCDKTHTCPPCPAPEAAGGPSVFLFPPKPKDTLMISRTPEVTCVVVDVSHEDPEVKFNWYVDGVEVHNAKTKPREEQYNSTYRVVSVLTVLHQDWLNGKEYKCKVSNKALGAPIEKTISKAKGQPREPQVYTLPPSRDELTKNQVKLTCLVKGFYPSDIAVEWESNGQPENNYKTTPPVLDSDGSFFLYSSLTVDKSRWQQGNVFSCSVMHEALHNHYTQKSLSLSPG light: not shown SPGQGTQSENSCTHFPGNLPNMLRDLRDAFSRVKTFFQMKDQLDNLLLKESLLEDFKGYLGCQALSEMIQFYLEEVMPQAENQDPDIKAHVNSLGENLKTLRLRLRRCHRFLPCENGGGSGGKSKAVEQVKNAFNKLQEKGIYKAMSEFDIFINYIEAYMTMKIRNGGGGSGGGGSDKTHTCPPCPAPEAAGGPSVFLFPPKPKDTLMISRTPEVTCVVVDVSHEDPEVKFNWYVDGVEVHNAKTKPREEQYNSTYRVVSVLTVLHQDWLNGKEYKCKVSNKALGAPIEKTISKAKGQPREPQVYTLPPSRDELTKNQVSLTCLVSGFYPSDIAVEWESNGQPENNYKTTPPVLDSDGSFKLYSKLTVDKSRWQQGNVFSCSVMHEALHNHYTQKSLSLSPG |  |
| 19 |  | PRO027 (IL-10/DSG1 ANDbody: IL-10 dimer replacing one Fab of the anti-DSG1 mAb) (other) heavy: EVQLVESGGGLVQPGRSLRLSCAASGFTFDDYAMHWVRQAPGKGLEWVSGISWNSGSIDYADSVKGRFTISRDNAKNSLYLQMNSLRVEDTALYYCAKDGSRVFGVGGGFDFWGQGTMVTVSSASTKGPSVFPLAPSSKSTSGGTAALGCLVKDYFPEPVTVSWNSGALTSGVHTFPAVLQSSGLYSLSSVVTVPSSSLGTQTYICNVNHKPSNTKVDKKVEPKSCDKTHTCPPCPAPEAAGGPSVFLFPPKPKDTLMISRTPEVTCVVVDVSHEDPEVKFNWYVDGVEVHNAKTKPREEQYNSTYRVVSVLTVLHQDWLNGKEYKCKVSNKALGAPIEKTISKAKGQPREPQVYTLPPSRDELTKNQVKLTCLVKGFYPSDIAVEWESNGQPENNYKTTPPVLDSDGSFFLYSSLTVDKSRWQQGNVFSCSVMHEALHNHYTQKSLSLSPG light: not shown SPGQGTQSENSCTHFPGNLPNMLRDLRDAFSRVKTFFQMKDQLDNLLLKESLLEDFKGYLGCQALSEMIQFYLEEVMPQAENQDPDIKAHVNSLGENLKTLRLRLRRCHRFLPCENKSKAVEQVKNAFNKLQEKGIYKAMSEFDIFINYIEAYMTMKIRNGGGSGGGSPGQGTQSENSCTHFPGNLPNMLRDLRDAFSRVKTFFQMKDQLDNLLLKESLLEDFKGYLGCQALSEMIQFYLEEVMPQAENQDPDIKAHVNSLGENLKTLRLRLRRCHRFLPCENKSKAVEQVKNAFNKLQEKGIYKAMSEFDIFINYIEAYMTMKIRNGGGGSGGGGSDKTHTCPPCPAPEAAGGPSVFLFPPKPKDTLMISRTPEVTCVVVDVSHEDPEVKFNWYVDGVEVHNAKTKPREEQYNSTYRVVSVLTVLHQDWLNGKEYKCKVSNKALGAPIEKTISKAKGQPREPQVYTLPPSRDELTKNQVSLTCLVSGFYPSDIAVEWESNGQPENNYKTTPPVLDSDGSFKLYSKLTVDKSRWQQGNVFSCSVMHEALHNHYTQKSLSLSPG |  |
|  | binds | PRO053 (Notch2/RAGE ANDbody made by controlled Fab arm exchange of PRO036 K409R and PRO002 F405L) (bispecific antibody, copies: 1 + 1 + 1 + 1) heavy 1: not shown light 1: DIQMTQSPSSLSASVGDRVTITCRASQSVRSFLAWYQQKPGKAPKLLIYRASIRASGVPSRFSGSGSGTDFTLTISSLQPEDFATYYCQQYYISPWTFGQGTKVEIKRTVAAPSVFIFPPSDEQLKSGTASVVCLLNNFYPREAKVQWKVDNALQSGNSQESVTEQDSKDSTYSLSSTLTLSKADYEKHKVYACEVTHQGLSSPVTKSFNRGEC heavy 2: not shown light 2: DIQMTQSPSSLSASVGDRVTITCRASQDVGIYVNWFQQKPGKAPRRLIYRATNLADGVPSRFSGSRSGTDFTLTISSLQPEDFATYYCLEFDEHPLTFGGGTKVEIKRTVAAPSVFIFPPSDEQLKSGTASVVCLLNNFYPREAKVQWKVDNALQSGNSQESVTEQDSKDSTYSLSSTLTLSKADYEKHKVYACEVTHQGLSSPVTKSFNRGEC |  |
